From patent publication US20220265759A1, “COMPOSITION AND METHOD FOR PROMOTING WOUND HEALING” (THE BOARD OF TRUSTEES OF THE UNIVERSITY OF ILLIOIS, priority 2019, published 2022)

Tests used:
[1] = test system: eNOS and CCR10 interaction with LAMP1; assay: eNOS internalization and degradation in HDMVECs stimulated with CCL28 (Co-IP with LAMP1, confocal microscopy); type: cell-based, human; conditions: HDMVECs
Method: (§1) Co-IP Experiments, cells or mouse wounds were collected after treatment, and lysed in 2% ODG in Tris buffer. The homogenates were further prepared for Co-IP experiments as described in the art (Chen, et al. (2018) Mol. Biol. Cell 29(10):1190-1202; Chen, et al. (2020) FASEB J. 34(4):5838-5850; Chen, et al. (2015) Ann. Rheum. Dis. 74:1898-1906).
Confocal Microscopy. For cellular immunostaining, confluent monolayers of cells grown on coverslips were prepared as described previously (Chen, et al. (2012) Mel. Biol. Cell 23(7):1388-1398). Fluorescent images were obtained using a Zeiss LSM 880 confocal microscope. The co-localization coefficient in specified regions of interest (ROI) were determined using Zeiss Zen software. Briefly, using the Overlay tool, the desired ROI was drawn along the cell edge and the values for the ROIs tabulated. The scatterplot and table were automatically adjusted to the pixel distribution for the selected ROI. The data from different treatment groups were collected and analyzed for statistical significance as described previously (Chen, et al. (2020) FASEB J. 34(4):5838-5850). […]
Since myristoylated 7 amino acid CCR10-binding domain (Myr-CBD7) peptide can block eNOS interaction with CCR10 and increase eNOS activity in HUVECs, it was assessed whether Myr-CBD7 can prevent eNOS internalization and degradation in HDMVECs following CCL28 stimulation. […]

HUVECs = assay: NO production in HUVECs; type: cell-based, human; conditions: 500 ng/ml
Method: Nitric Oxide (NO) Measurement with DAF-FM Diacetate. Confluent HUVEC monolayers on 96-well plates were loaded with 2.5 μM DAF-FM and incubated for 45 minutes at 37° C. NO concentration was measured using a SpectraMax Microplate Reader (Molecular Devices, San Jose, Calif.) as described in the art (Chen, et al. (2020) FASEB J. 34(4):5838-5850).
(§2) NO production was also observed in HUVECs following treatment with 500 ng/ml human recombinant CCL28, the ligand for CCR10. The signaling pathways activated by CCL28 binding to CCR10 in endothelial cells were further investigated.

[2] = test system: eNOS, p85 (PI3K), Src kinase, ERK (MAPK), β-catenin, Bcl-2; assay: Immunoblot of CCL28 signaling in endothelial cells; type: cell-based, human
Method: Immunoblot and Co-Immunoprecipitation (Co-IP). After serum starvation, inhibitors were added 45 minutes prior to stimulation for indicated times at 37° C., and cells were then collected and lysed for western blot analysis. After probing for p-eNOS (Ser1177), p-p85 (Tyr458), p-Src (Tyr 416), and p-ERK (T202/Y204), the same blots were stripped and re-probed for total proteins mentioned above. For detection of CCL28-induced protein levels of β-catenin and Bcl-2, near-confluent endothelial cells were incubated with 500 ng/ml CCL28 for 24 hours in EGM-2 medium containing 1% FBS.
as §2
The role of CCL28/CCR10 signaling pathways was further investigated in angiogenesis. Pretreatment of cells with 10 μM wortmannin (PI3K inhibitor), 5 μM U0126 (MAPK/ERK inhibitor), 1 mM L-NAME (eNOS inhibitor), 10 μM PP2 (Src kinase inhibitor), and 10 μM STO-609 ([…]) reduced endothelial cell tube formation induced by 500 ng/ml CCL28. […]

CCR10-eNOS interaction = biological target: T1, CCR10-eNOS interaction (Homo sapiens, UniProt P46092); assay: Ligand-induced CCR10-eNOS interaction in HUVEC (Co-IP, confocal co-localization); type: cell-based; conditions: plasma membrane ROI, stimulation for 5 minutes; untreated control cells 43%
T1 construct: host or cells: HUVEC (primary human umbilical vein endothelial cells)
T1 sequence (P46092 1-362): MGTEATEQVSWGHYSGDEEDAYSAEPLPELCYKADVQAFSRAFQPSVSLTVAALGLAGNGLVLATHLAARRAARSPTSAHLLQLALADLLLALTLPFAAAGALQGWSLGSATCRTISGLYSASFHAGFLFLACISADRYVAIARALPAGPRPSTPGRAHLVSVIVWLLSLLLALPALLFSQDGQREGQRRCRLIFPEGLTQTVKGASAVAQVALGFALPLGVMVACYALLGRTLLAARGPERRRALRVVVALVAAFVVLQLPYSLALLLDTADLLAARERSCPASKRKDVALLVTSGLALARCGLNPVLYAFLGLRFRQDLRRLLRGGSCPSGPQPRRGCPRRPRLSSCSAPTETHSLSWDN
Method: as §1
Confocal Microscopy. For cellular immunostaining, confluent monolayers of cells grown on coverslips were prepared as described previously (Chen, et al. (2012) Mel. Biol. Cell 23(7):1388-1398). Fluorescent images were obtained using a Zeiss LSM 880 confocal microscope. The co-localization coefficient in specified regions of interest (ROI) were determined using Zeiss Zen software. Briefly, using the Overlay tool, the desired ROI was drawn along the cell edge and the values for the ROIs tabulated. […] The data from different treatment groups were collected and analyzed for statistical significance as described previously (Chen, et al. (2020) FASEB J. 34(4):5838-5850).
To investigate whether CCR10 interacts directly with eNOS, primary culture HUVEC were collected and prepared for co-immunoprecipitation (Co-IP) to assess CCR10-eNOS interaction following stimulation with 5 μM A23187. […] Co-localization coefficient in the regions of interest (ROI) in the plasma membrane were quantified from Zeiss LSM 880 confocal microscope images using Zeiss Zen software.

eNOS-CCR10 interaction = biological target: T2, eNOS-CCR10 interaction (Homo sapiens, UniProt P46092); assay: CCL28-induced eNOS-CCR10 interaction in HDMVECs; type: cell-based; conditions: 500 ng/ml
T2 construct: host or cells: HDMVEC (human dermal microvascular endothelial cells)
T2 sequence (P46092 1-362): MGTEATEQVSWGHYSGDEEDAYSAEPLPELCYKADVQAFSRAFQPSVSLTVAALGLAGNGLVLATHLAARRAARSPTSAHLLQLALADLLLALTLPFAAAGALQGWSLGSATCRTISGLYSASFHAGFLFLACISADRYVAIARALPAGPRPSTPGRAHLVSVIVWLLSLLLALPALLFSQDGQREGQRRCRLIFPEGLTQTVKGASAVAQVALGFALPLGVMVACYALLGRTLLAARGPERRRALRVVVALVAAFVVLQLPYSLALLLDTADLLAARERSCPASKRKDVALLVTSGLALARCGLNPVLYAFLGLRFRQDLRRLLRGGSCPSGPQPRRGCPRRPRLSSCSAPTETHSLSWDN
T2 sequence (P29474 2-1203 partner limits assumed): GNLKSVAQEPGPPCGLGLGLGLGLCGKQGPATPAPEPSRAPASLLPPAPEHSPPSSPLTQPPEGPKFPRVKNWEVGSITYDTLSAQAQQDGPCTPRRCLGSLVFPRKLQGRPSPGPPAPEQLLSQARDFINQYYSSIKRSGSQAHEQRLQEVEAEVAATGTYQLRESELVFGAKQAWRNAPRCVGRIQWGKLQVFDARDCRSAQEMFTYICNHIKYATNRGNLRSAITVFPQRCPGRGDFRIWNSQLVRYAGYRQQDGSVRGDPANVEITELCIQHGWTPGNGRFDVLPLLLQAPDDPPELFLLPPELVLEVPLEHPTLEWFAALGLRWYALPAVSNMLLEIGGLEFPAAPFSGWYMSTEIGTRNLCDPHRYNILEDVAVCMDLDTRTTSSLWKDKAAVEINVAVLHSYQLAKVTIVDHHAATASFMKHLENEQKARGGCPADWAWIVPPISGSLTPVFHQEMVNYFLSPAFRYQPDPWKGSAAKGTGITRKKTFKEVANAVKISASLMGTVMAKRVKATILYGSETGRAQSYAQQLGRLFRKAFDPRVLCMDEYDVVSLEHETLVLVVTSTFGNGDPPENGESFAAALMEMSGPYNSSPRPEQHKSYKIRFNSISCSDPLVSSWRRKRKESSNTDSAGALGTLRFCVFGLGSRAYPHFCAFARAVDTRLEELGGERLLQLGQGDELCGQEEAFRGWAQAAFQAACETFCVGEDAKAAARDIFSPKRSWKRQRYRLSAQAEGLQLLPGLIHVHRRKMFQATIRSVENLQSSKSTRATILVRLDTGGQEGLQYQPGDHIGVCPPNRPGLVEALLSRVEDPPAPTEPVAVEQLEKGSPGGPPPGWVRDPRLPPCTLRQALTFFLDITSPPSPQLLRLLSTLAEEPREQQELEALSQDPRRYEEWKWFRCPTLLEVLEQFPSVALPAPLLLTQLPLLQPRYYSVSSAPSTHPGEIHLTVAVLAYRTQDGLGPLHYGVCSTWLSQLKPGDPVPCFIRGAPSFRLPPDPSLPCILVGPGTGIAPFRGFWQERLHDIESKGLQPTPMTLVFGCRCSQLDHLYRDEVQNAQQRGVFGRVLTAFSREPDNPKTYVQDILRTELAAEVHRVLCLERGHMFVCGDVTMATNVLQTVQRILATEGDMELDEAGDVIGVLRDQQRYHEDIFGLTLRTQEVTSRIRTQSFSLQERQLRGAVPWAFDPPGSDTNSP
Text: as §1
It has been shown that CCR10 is highly expressed in human umbilical vein endothelial cells (HUVECs) and human endothelial progenitor cells (EPCs) (Chen, et al. (2020) FASEB J. 34(4):5838-5850). In order to understand whether the CCL28/CCR10 signaling axis in dermal microvessels plays a role in wound healing, 500 ng/ml CCL28 was administrated to human dermal microvascular endothelial cells (HDMVECs). eNOS-CCR10 interaction increased with maximum binding observed at 5 minutes, similar to that observed in HUVEC (Chen, et al. (2020) FASEB J. 34(4):5838-5850). […] Upon stimulation with CCL28 for 5 minutes, CCR10 co-localized to a greater extent with eNOS on the plasma membrane.

B1: CCL28: human recombinant CCL28, the ligand for CCR10 (protein)
chain: ILPIASSCCTEVSHHISRRLLERVNMCRIQRADGDCDLAAVILHVKRRRICVSPHNHTVKQWMKVQAAKKNGKGNVCHRKKHHGKRNSNRAHQGKHETYGHKTPY
eNOS co-localization with EEA1 ([1]; 500 ng/ml for 90 minutes, preliminary analyses): more co-localization
eNOS and CCR10 association with LAMP1 (co-IP) ([1]; 3 hours treatment): associated with LAMP1
NO production (HUVECs): observed
expression levels of β-catenin and Bcl-2 ([2]; stimulation of endothelial cells for 24 hours): enhanced
Phosphorylation of eNOS (Ser1177), p85 (Tyr458; PI3K), Src kinase (Tyr418), and ERK (T202/Y204; MAPK) ([2]; treatment for up to 60 minutes): significantly increased
Co-localization coefficient of CCR10 and eNOS (CCR10-eNOS interaction): 78%
eNOS-CCR10 interaction (eNOS-CCR10 interaction): increased
time of maximum eNOS-CCR10 binding (eNOS-CCR10 interaction): 5 min
